{
  "source": "patent US20060057614A1",
  "about": "(priority 2004, published 2006)",
  "target": "sodium Nav1.2 voltage-gated channel (expressed in Xenopus oocytes)",
  "experiment": "cell-based or functional assay",
  "data": [
    {"substance": "tethered µ-o-conotoxin MrVIA", "values": [
      {"measurement": "current flux through the channel, whole cell currents in Xenopus oocytes", "result": 90, "unit": "%"}
    ]}
  ]
}
